In patent US20170158755A1 (PROTHENA BIOSCIENCES, published 2017):

Legend:
[1] = target: T1, human LAMA4 LG4-5 modules displayed on 293 cells (human, UniProt Q16363 1453-1821); assay: flow cytometry on 293 cells displaying LAMA4 G-domain variants, anti-human-650 secondary antibody; MFI
T1 construct: pDisplay construct on 293 cells; vector tags and anchor not written here
T1 sequence: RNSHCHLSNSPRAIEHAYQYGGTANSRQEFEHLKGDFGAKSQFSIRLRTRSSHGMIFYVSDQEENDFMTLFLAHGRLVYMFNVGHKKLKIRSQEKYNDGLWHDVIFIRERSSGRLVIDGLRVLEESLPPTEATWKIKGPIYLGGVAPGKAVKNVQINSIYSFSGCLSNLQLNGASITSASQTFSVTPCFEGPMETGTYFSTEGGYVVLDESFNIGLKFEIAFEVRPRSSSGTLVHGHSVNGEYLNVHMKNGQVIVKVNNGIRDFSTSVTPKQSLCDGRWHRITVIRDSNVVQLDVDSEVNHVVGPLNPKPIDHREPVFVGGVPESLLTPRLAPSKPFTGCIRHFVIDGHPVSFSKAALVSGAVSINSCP
Procedure: The 19C12 variants chimeric 19C12, H1+chiL, and H2+chiL, and buffer alone were tested for their ability to block the binding of LAMA4 to its ligand MCAM (as shown in FIG. 11) and to bind LAMA4-displaying cells (full length, LG1-3, LG4-5, or untransfected control) (as shown in FIG. 12). […] To test LAMA4 binding capacity, serially diluted antibodies were pre-incubated with LAMA4-displaying human 293 cells, followed by anti-human-650 secondary antibody incubation. Fluorescent signal was assessed via flow cytometric analyses and plotted as mean fluorescence intensity (MFI).

recombinant laminin 411 [2] = target: T2, recombinant laminin 411 (human, UniProt P07942 22-1786; P11047 34-1609, limits assumed); assay: flow cytometric blocking assay; antibody pre-incubated with 650-labeled laminin 411; blocked partner: human MCAM on CHO cells; MFI
T2 construct: also called LAMA4 in complex with its gamma1 and beta1 chains
Procedure: The 19C12 variants chimeric 19C12, H2L3, H2L4, H2L6, H3L6, and isotype control were tested for their ability to block the binding of LAMA4 to its ligand MCAM (FIG. 15) and to bind LAMA4-displaying cells (FIG. 16). To test LAMA4 binding capacity, serially diluted antibodies were pre-incubated with LAMA4-displaying human 293 cells, followed by anti-human-650 secondary antibody incubation. […] Fluorescent signal was assessed via flow cytometric analyses and plotted as mean fluorescence intensity (MFI). All 19C12 variants retained their MCAM blocking and LAMA4 binding activity when compared with chimeric 19C12.
(§1) Following two washes with FACS buffer (1% FBS in PBS), cells were resuspended with 650-conjugated anti-pan-laminin antibody (1:1000; Novus Biologicals) and incubated for 20 min at 4° C., and washed again. Cells were analyzed for pan-laminin reactivity by flow cytometry using standard procedures.

human His-laminin-α4 = target: T3, human His-laminin-α4 (human, UniProt Q16363 833-1823, limits assumed); assay: Biacore SPR
T3 construct: Bought His-tagged recombinant protein (R & D Systems); also called Human LAMA4; human His-laminin-α4 (R & D Systems)
T3 sequence: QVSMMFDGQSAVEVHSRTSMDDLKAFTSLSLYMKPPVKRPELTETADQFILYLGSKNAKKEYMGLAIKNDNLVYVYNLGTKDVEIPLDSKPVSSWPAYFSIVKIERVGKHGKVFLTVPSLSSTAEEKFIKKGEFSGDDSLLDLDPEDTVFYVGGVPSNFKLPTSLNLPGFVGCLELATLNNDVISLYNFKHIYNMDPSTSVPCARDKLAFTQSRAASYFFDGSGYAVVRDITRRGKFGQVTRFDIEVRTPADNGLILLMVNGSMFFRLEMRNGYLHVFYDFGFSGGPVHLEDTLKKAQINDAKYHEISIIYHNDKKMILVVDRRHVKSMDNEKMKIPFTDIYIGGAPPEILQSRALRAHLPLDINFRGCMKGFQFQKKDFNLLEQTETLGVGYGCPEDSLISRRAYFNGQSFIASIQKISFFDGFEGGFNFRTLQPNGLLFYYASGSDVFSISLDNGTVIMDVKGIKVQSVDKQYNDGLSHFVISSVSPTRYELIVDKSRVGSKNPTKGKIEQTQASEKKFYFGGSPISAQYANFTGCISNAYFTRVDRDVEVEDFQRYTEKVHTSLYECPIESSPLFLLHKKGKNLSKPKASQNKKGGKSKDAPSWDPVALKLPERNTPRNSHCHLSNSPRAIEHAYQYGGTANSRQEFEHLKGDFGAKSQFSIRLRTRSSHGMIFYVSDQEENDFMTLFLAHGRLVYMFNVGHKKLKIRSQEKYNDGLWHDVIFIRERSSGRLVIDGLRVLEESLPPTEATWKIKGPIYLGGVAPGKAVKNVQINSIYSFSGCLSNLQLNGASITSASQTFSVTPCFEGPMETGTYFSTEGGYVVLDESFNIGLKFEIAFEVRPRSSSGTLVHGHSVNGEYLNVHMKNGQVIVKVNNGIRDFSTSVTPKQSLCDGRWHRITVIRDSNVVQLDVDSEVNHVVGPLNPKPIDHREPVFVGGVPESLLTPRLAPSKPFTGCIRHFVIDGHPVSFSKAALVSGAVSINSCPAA

mouse His-laminin-α4 [3] = target: T4, mouse His-laminin-α4 (mouse, UniProt P97927 826-1816, limits assumed); assay: Biacore SPR
T4 construct: Bought His-tagged recombinant protein; also called Murine LAMA4; recombinant mouse LAMA4-His
T4 sequence (looked up): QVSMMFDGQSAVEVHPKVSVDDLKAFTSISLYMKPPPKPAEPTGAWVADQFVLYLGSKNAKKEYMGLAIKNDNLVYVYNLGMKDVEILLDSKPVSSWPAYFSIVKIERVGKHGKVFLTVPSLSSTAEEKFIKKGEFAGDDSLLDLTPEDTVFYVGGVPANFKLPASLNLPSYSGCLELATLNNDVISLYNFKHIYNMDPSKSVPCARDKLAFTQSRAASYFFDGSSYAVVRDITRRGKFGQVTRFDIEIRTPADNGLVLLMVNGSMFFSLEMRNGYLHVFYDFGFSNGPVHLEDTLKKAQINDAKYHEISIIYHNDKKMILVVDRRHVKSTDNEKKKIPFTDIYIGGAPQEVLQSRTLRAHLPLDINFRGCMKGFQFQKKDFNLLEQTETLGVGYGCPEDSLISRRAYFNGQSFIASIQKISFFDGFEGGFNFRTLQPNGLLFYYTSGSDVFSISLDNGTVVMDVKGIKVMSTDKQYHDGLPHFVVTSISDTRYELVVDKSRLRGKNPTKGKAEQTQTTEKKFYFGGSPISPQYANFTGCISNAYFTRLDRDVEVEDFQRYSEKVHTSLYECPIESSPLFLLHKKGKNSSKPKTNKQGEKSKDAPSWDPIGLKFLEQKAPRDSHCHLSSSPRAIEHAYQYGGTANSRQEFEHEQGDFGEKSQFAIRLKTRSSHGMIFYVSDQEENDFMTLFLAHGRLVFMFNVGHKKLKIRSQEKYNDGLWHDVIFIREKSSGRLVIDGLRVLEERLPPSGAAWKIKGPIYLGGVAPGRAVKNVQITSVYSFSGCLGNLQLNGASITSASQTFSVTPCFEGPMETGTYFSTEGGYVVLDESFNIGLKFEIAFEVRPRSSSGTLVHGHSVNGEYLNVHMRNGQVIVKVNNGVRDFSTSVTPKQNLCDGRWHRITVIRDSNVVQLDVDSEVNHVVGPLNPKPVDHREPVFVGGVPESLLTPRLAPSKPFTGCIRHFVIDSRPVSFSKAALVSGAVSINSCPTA

mouse His-laminin-α4 [4] = target: T4, mouse His-laminin-α4; assay: ELISA hMCAM-Fc capture blocking assay; antibody pre-incubated with mouse LAMA4-His; blocked partner: captured hMCAM-Fc
[5] = target: T5, human LAMA4 G domain (LG1-5) displayed on 293 cells (human, UniProt Q16363 830-1821); assay: LAMA4 pDisplay flow cytometric blocking assay on LAMA4-displaying 293 cells; blocked ligand: 650-conjugated mouse MCAM-Fc
T5 construct: the vector's tags and membrane anchor are not written here; also called LAMA4-displaying human 293 cells; full length
T5 sequence: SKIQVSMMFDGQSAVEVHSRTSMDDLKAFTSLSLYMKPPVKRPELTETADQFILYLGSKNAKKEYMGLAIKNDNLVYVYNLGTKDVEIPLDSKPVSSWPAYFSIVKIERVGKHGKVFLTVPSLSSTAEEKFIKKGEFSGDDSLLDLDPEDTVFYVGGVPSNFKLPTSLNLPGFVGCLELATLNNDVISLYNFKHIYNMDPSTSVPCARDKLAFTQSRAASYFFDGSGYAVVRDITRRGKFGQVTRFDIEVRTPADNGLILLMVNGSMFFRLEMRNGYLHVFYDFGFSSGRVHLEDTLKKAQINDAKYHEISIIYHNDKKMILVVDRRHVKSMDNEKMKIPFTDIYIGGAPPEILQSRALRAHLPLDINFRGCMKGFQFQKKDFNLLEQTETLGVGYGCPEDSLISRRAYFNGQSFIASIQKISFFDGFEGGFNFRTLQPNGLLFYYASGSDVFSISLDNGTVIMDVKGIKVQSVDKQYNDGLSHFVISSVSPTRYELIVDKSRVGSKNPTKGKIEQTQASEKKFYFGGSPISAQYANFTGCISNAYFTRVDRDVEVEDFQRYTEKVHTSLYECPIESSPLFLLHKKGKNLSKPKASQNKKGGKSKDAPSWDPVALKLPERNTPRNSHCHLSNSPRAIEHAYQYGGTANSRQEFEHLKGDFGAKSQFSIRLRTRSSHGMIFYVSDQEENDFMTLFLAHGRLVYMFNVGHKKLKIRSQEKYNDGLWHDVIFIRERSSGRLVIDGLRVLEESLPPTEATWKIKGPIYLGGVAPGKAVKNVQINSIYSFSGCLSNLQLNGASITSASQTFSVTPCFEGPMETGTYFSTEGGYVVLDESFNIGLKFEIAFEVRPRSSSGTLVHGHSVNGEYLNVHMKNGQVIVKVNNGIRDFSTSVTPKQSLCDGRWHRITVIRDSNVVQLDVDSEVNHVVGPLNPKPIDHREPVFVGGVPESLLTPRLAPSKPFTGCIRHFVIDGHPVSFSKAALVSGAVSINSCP

recombinant laminin 411 [6] = target: T2, recombinant laminin 411; assay: hMCAM.CHO flow cytometric blocking assay; antibody pre-incubated with laminin 411; blocked partner: human MCAM on CHO cells
Procedure: The monoclonal antibodies against LAMA4 were tested for their ability to block the binding of LAMA4 to its ligand MCAM. IgG control antibody, 1C1, 5Al2, 5B5, 19C12, and 12D3 were pre-incubated with recombinant LAMA4 protein, LAMA4-positive healthy mouse brain tissue, or LAMA4-displaying human 293 cells. […] For the mouse brain tissue blocking assay, antibodies were used at concentrations of 2.5 ug/ml or 0.04 ug/ml.
as §1

T2 sequence (P07942 22-1786 limits assumed, chain 2 of 2): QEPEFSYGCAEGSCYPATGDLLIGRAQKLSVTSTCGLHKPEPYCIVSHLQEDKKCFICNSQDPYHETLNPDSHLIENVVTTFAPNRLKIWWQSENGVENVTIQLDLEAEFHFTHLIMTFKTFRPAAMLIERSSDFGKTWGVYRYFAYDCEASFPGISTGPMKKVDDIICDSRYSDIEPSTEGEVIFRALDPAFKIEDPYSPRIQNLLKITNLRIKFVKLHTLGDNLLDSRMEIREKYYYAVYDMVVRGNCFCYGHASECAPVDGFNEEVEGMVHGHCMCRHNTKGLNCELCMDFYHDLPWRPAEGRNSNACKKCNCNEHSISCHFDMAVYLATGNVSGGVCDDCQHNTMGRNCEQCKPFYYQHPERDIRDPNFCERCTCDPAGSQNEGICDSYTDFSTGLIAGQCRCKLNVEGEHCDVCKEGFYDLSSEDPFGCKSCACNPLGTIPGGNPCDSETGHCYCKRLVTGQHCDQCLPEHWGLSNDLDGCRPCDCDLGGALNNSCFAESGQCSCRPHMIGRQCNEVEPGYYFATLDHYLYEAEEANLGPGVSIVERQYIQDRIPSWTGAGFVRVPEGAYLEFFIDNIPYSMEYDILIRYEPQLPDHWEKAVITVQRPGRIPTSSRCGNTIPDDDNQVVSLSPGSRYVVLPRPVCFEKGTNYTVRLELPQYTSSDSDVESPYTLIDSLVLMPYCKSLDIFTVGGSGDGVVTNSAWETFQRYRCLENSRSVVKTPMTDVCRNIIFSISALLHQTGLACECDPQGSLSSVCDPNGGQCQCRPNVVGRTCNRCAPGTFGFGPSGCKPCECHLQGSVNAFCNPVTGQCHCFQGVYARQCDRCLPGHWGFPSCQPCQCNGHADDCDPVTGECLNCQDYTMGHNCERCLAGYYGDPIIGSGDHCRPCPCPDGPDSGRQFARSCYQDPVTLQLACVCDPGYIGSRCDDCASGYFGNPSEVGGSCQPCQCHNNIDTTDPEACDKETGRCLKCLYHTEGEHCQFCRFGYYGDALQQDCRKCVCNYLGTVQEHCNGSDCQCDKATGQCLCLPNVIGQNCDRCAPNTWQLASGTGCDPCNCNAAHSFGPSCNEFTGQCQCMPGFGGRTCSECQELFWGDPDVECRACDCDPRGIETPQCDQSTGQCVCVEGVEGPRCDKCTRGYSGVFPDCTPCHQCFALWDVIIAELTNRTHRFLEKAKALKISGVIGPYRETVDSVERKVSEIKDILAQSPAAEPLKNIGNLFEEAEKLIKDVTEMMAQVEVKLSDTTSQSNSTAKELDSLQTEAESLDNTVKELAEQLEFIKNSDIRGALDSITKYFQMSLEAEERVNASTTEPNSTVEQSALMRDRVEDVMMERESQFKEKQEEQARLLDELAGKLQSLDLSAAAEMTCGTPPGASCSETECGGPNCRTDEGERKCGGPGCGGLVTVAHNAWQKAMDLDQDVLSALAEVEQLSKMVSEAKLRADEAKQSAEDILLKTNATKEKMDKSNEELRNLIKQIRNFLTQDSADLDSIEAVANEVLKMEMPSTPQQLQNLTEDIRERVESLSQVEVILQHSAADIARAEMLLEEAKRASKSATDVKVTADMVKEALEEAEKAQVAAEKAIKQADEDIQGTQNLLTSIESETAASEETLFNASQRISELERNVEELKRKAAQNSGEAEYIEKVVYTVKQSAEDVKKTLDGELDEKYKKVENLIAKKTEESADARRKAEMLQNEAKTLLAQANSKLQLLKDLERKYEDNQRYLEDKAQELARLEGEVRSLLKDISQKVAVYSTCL
T2 sequence (P11047 34-1609 limits assumed, chain 3 of 2): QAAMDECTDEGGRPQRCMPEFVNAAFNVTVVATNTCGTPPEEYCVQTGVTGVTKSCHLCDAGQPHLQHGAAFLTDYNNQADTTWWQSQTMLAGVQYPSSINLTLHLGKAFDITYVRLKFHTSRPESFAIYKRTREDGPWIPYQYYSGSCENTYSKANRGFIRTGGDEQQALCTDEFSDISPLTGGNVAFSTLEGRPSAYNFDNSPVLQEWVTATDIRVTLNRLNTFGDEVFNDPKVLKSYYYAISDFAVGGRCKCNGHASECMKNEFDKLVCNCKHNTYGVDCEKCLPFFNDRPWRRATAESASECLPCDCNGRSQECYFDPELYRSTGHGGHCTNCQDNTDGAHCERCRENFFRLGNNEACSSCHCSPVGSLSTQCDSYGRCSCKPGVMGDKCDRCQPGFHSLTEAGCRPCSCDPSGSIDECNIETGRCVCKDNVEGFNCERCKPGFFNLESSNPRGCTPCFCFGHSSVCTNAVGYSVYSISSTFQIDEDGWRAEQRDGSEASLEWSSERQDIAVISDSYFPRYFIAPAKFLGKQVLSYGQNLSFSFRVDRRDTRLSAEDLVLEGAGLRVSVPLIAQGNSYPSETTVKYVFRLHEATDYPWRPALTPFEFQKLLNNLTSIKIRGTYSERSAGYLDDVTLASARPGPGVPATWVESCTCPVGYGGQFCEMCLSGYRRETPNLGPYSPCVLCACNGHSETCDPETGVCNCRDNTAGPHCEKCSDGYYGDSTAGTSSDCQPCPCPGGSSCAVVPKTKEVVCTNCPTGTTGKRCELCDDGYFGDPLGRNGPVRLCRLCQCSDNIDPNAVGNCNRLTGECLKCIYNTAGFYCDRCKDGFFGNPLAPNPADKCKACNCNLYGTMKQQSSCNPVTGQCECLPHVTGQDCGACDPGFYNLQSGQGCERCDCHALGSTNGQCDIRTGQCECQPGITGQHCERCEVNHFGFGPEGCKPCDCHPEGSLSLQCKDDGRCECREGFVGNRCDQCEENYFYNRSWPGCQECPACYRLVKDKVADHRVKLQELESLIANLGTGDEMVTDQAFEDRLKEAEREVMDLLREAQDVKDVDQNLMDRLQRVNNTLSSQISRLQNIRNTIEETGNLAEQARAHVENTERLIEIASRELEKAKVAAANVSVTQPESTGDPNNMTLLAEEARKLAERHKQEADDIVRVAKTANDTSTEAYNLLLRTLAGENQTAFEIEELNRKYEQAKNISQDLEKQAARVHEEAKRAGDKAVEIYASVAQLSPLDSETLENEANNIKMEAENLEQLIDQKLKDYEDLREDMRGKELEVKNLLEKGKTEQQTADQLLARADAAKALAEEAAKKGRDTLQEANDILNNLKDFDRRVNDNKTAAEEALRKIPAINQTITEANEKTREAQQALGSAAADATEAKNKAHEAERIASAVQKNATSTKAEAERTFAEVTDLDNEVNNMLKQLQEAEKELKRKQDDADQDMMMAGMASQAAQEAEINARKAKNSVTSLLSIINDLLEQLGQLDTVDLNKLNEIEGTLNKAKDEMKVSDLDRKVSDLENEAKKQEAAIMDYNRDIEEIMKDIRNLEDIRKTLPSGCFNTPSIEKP

B1: chimeric 19C12 antibody (antibody, V domains shown)
VH: QVQLQQSGAELVKPGASVKISCKASGYAFSTYWMNWVKQRPGEGLEWIGQIYPGDGDTNYNGKFKGKATLTADKSSSTAYMQLSSLTSEDSAVYFCARSDGYYDYWGQGTTLTVSS
VL: NIVLTQSPASLAVSLGQRATISCRASESVDSYGTSFMHWYQQKPGQPPKLLICLASSLESGVPARFSGSGSRTDFTLTIDPVEADDAATYYCQQNNEDPPTFGAGTKLELKR
notes: Mouse 19C12 variable regions with human constant regions (captured by anti-human Fc, detected by anti-human secondary); also called chi19C12; 19C12 chi
- binding result [1]: no binding (tested: 5 ug/ml)
- IC50 (read off the curve) (recombinant laminin 411 [2]): ~0.7 µg/mL

B2: mouse monoclonal antibody 5A12 (antibody, V domains shown)
VH: QVQLQQPGAELVKPGASVKLSCKASGYTFTSYWMHWVKQRPGRGLEWIGRIDPNSGGTKHNEKFKSKATLTVDKPSSTAYMQLSSLTSEDSAVYYCAGSPSYYDYALHYAMDYWGQGTSVTVSS
VL: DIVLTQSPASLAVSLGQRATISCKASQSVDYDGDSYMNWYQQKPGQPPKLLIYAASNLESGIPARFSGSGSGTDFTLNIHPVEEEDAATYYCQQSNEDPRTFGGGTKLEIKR
notes: version 1 is written here; also called 5Al2
- Kd (human His-laminin-α4): 10.9 nM
- koff (human His-laminin-α4): 0.00791 s⁻¹
- kon (human His-laminin-α4): 723000 M⁻¹ s⁻¹
- Kd (mouse His-laminin-α4 [3]): 10.3 nM
- koff (mouse His-laminin-α4 [3]): 0.00815 s⁻¹
- kon (mouse His-laminin-α4 [3]): 795000 M⁻¹ s⁻¹
- IC50 (read off the curve) (mouse His-laminin-α4 [4]): ~0.2 µg/mL
- IC50 (read off the curve) [5]: ~0.1 µg/mL
- IC50 (read off the curve) (recombinant laminin 411 [6]): ~0.06 µg/mL
